Assay results reported in US20130330346A1 (Novartis, published 2013).
Where two headings read alike, the source gives them in different places. Ends that are not written are not given here.

T1: Cynomolgus CXCR2 (cynomolgus, UniProt Q28519 3-353 (rhesus entry))
T1 chain: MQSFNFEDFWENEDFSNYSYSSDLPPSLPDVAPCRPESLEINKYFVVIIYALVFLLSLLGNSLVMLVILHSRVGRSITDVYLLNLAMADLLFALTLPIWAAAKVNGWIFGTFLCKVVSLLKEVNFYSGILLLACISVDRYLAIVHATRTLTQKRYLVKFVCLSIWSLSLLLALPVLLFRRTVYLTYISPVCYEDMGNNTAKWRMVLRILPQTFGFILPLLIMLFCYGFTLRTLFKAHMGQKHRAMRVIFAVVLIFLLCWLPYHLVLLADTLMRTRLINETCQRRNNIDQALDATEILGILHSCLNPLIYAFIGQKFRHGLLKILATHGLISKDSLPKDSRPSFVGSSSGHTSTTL

T2: Human CXCR2 (human, UniProt P25025 1-360)
T2 sequence: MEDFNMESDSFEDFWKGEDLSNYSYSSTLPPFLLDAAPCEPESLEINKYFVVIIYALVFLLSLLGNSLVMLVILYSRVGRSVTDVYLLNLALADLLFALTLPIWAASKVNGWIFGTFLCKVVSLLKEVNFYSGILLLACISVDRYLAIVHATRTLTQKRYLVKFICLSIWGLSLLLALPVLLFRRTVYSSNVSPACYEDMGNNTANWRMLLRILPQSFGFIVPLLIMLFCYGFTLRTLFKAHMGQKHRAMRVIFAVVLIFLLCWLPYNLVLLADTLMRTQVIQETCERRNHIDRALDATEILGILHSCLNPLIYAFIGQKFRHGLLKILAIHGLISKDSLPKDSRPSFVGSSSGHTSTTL

T3: Human 1to19 peptide (human)
T3 construct: First 19 N-terminal amino acids of human CXCR2, captured on neutravidin; also called human CXCR2 1 to19 peptide; 1-19 Nter peptide
T3 peptide: MEDFNMESDSFEDFWKGED-biotin


Legend:
Cynomolgus CXCR2 [1] = target: T1, Cynomolgus CXCR2; assay: cell-based or functional assay
Human CXCR2 [2] = target: T2, Human CXCR2; assay: cell-based or functional assay
Cynomolgus CXCR2 [3] = target: T1, Cynomolgus CXCR2; assay: cell-based or functional assay
Human CXCR2 [4] = target: T2, Human CXCR2; assay: cell-based or functional assay; remark: listed apart in the source
Human CXCR2 [5] = target: T2, Human CXCR2; assay: cell-based or functional assay; remark: listed apart in the source
Cynomolgus CXCR2 [6] = target: T1, Cynomolgus CXCR2; assay: FACS competition vs 3 nM FMAT-Blue Gro-α
Description: (§1) Multivalent anti-CXCR2Nanobodies were titrated against 3 nM FMAT-Blue-labeled Gro-α in the FACS ligand competition assay on human and cynomolgus CXCR2 (Table 14). On human CXCR2, blocking potencies range between double digit nM and sub-nM whereas on cynomolgus CXCR2, they range between single and double digit nM.

Human CXCR2 [7] = target: T2, Human CXCR2; assay: FACS competition vs 3 nM FMAT-Blue Gro-α
Description: as §1

Human 1to19 peptide = target: T3, Human 1to19 peptide; assay: ELISA, periplasmic extract on biotinylated peptide
Description: In another setup, periplasmic extracts were analyzed for binding to human 1 to 19 peptide by ELISA. MaxiSorb plates (Nunc, 430341) were coated for two hours with neutravidin followed by one hour blocking (PBS, 1% casein). Then 100 nM biotinylated human 1 to 19 peptide was added to these plates for one hour (PBS, 0.1% casein, 0.05% tween20) followed by one hour incubation with 10-fold dilutions of periplasmic extracts. Unbound periplasmic extracts were washed away (PBS supplemented with 0.05% tween20) and bound Nanobodies were detected using mouse anti-myc (Roche, 11667149001) followed by rabbit anti-mouse-HRP conjugate (Dakocytomation, P0260). Table 8 summarizes the ratios of the binding signals of anti-CXCR2Nanobodies over an irrelevant control Nanobody.

Human CXCR2 [8] = target: T2, Human CXCR2; assay: FACS, periplasmic extract vs FMAT Blue Gro-α
Description: Periplasmic extracts (as described above) were analyzed on FACS for competition with Gro-α in binding to human CXCR2. 2×10⁵ cells were incubated with a ½ dilution of periplasmic extracts in FACS buffer (PBS+10% fetal bovine serum (Sigma, F7524)) for 30 minutes at 4° C. Then, an equal volume of 6 nM of FMAT Blue-labeled human Gro-α in FACS buffer was added and incubation was continued for another 30 minutes at 4° C. in the dark. Cells were then washed three times in FACS buffer and finally resuspended in FACS buffer. Dead cells were stained with propidium iodide (Sigma, P4170). Samples were then analyzed on a FACSarray (BD Biosciences).

Human CXCR2 [9] = target: T2, Human CXCR2; assay: FACS competition vs 3 nM FMAT-Blue Gro-α; remark: listed apart in the source
Description: as §1, with “Purified monovalent” for “Multivalent”, “10).” for “14).”

Human CXCR2 [10] = target: T2, Human CXCR2; assay: cell-based or functional assay; remark: listed apart in the source

Binder | Cynomologus WBSC IC50 (rhGROα) (Cynomolgus CXCR2 [1]) | Human WBSC IC50 (rhGROα) (Human CXCR2 [2]) | FLIPR % inhibition of max (Cynomolgus CXCR2 [3]) | FLIPR IC50 (GRO-α induced calcium release) (Cynomolgus CXCR2 [3]) | FLIPR % inhibition of max (Human CXCR2 [4]) | FLIPR IC50 (GRO-α induced calcium release) (Human CXCR2 [4]) | [35S]GTPγS % inhibition of max (GRO-α) (Human CXCR2 [5]) | [35S]GTPγS IC50 (GRO-α) (Human CXCR2 [5]) | % inhibition of max (Cynomolgus CXCR2 [6]) | IC50 (Cynomolgus CXCR2 [6]) | % inhibition of max (Human CXCR2 [7]) | IC50 (Human CXCR2 [7]) | ratio of binding signal relative to blank control (Human 1to19 peptide) | FACS Gro-α competition (% inhibition) (Human CXCR2 [8]) | also measured
CXCR20030 (other, Biparatopic: two VHH joined by a GlySer linker; also called 163D2-35GS-54B12; 163D2-54B12; not shown: C-terminal c-myc tag and His6 tag coded by pAX100) EVQLVESGGGLVQAGGSLRLSCAASGRTFSDYAMGWFRQAPGKEREFVAAITWNGGRVFYTASVKGRFTISRDNAKNTMYLQMNSLKPEDTAVYYCAADKDRRTDYLGHPVAYWGQGTQVTVSSGGGGSGGGGSGGGGSGGGGSGGGGSGGGGSGGGGSEVQLVESGGGLVQAGGSLTLSCAVSGSTFRINTMGWYRRAPGKQRELVAARDRGGYINYVDSVKGRFTVSRDNAKPTMYLQMNSLKPEDTAVYYCHAGTQDRTGRNFDRWGQGTQVTVSS | 0.56 nM | 0.215 nM | 100% | 6.36 nM | 100% | 11.8 nM | 100% | 1.02 nM | 98.5% | 1.74 nM | 99.5% | 0.786 nM | – | – | [35S]GTPγS % inhibition of max (ENA-78) (Human CXCR2 [5]): 100%; [35S]GTPγS % inhibition of max (IL-8) (Human CXCR2 [5]): 100%; [35S]GTPγS IC50 (ENA-78) (Human CXCR2 [5]): 1.3 nM; [35S]GTPγS IC50 (IL-8) (Human CXCR2 [5]): 1.09 nM
139A8 (VHH, Tested as periplasmic extract only; also called 139A08; not shown: C-terminal c-myc tag and His6 tag coded by the vector) VHH: EVQLVESGGGLVQAGGSLRLSCAASGRSFSRSAMGWLRQAPGKEREFVAGISWGGDNSYYADSVKGRFTISRDNAKNTVSLQMNSLKPQDTAVYYCAARYRGGAAVAGWEYWGQGTQVTVSS | – | – | – | – | – | – | – | – | – | – | – | – | 1 ratio | 78.5% | –
126B11 (VHH, Tested as periplasmic extract only; not shown: C-terminal c-myc tag and His6 tag coded by the vector) VHH: EVQLVESGGGLVQAGGSLTLSCAVSGSSFRINTMGWYRRAPGKQRELVAARDRGGYINYVDSVKGRFTVSRDNAKPTMYLQMNSLKPEDTAVYYCHAGTQDRTGRNFDHWGQGTQVTVSS | – | – | – | – | – | – | – | – | – | – | – | – | – | 36.9% | –
137A8 (VHH, Tested as periplasmic extract only; also called 137A08; not shown: C-terminal c-myc tag and His6 tag coded by the vector) VHH: EVQLVESGGGLVQPGGSLRLSCAASGSTLAYYTVGWFRRAPGKEREGISCISSSDGSTYYADSVKGRFTISRDNAKNTVYLQMNSLKPEDTAVYYCAADRRTDCKKGRVGSGSWGQGTQVTVSS | – | – | – | – | – | – | – | – | – | – | – | – | 1.2 ratio | 55.8% | –
CXCR20034 (bispecific antibody, Biparatopic: two VHH joined by a GlySer linker; also called 163D2-35GS-2B2; 163D2-2B2; not shown: C-terminal c-myc tag and His6 tag coded by pAX100) EVQLVESGGGLVQAGGSLRLSCAASGRTFSDYAMGWFRQAPGKEREFVAAITWNGGRVFYTASVKGRFTISRDNAKNTMYLQMNSLKPEDTAVYYCAADKDRRTDYLGHPVAYWGQGTQVTVSSGGGGSGGGGSGGGGSGGGGSGGGGSGGGGSGGGGSEVQLVESGGELVQPGGSLRLSCAASGSILTINAMGWYRQAPGKQRELVVRRTRGGSTTYQDSVKGRFTISADIAKKTMYLQMNSLKPEDTAVYYCMLDDRGGVYWGQGTQVTVSS | 0.44 nM | 0.29 nM | 100% | 9.47 nM | 100% | 11.8 nM | 100% | 0.995 nM | 99% | 2.55 nM | 100% | 0.8 nM | – | – | Human Chemotaxis IC50 (rhGROα) (Human CXCR2 [2]): 0.143 nM
137B7 (VHH, Tested as periplasmic extract (pAX50) and as purified His6-tagged protein (pAX100); also called 137B07; not shown: C-terminal c-myc tag and His6 tag coded by the vector) VHH: EVQLVESGGGLVQPGGSVRLSCVASGIIFRLSALGWTRQGPGKAREWVAGINSDGTTNYADPVKGRFTISRDNAKNTIYLHMDMLKPEDTAVYYCASGKYRGQGTQVTVSS | – | – | – | – | – | – | – | – | – | – | – | – | 1 ratio | 90.3% | % inhibition of max (Human CXCR2 [9]): 93.5%; IC50 (Human CXCR2 [9]): 1.11 nM; FLIPR % inhibition max (Human CXCR2 [10]): 100%; FLIPR IC50 (GRO-α induced calcium release) (Human CXCR2 [10]): 6.71 nM
